# In patent US20180355009A1:
# T1: human IL-22 receptor complex IL22R1 and IL10R2, overexpressed on HEK 293 cells (human) (UniProt Q8N6P7)
# T1 sequence (looked up) 1: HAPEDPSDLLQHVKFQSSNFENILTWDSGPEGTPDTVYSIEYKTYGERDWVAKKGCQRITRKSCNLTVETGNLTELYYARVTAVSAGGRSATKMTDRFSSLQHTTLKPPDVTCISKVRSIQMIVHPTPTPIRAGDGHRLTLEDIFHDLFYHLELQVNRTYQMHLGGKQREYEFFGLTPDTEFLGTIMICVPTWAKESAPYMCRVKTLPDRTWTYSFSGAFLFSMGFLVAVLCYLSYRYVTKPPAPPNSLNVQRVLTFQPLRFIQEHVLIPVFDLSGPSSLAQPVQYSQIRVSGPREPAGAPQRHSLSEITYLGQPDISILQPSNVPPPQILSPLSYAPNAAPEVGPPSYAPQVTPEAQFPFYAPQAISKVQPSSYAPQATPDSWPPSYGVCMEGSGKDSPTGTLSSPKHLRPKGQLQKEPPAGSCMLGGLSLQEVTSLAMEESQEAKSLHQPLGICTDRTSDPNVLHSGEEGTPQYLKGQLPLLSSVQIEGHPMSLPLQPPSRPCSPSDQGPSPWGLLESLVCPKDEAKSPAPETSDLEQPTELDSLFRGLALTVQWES
# T1 sequence (looked up) 2: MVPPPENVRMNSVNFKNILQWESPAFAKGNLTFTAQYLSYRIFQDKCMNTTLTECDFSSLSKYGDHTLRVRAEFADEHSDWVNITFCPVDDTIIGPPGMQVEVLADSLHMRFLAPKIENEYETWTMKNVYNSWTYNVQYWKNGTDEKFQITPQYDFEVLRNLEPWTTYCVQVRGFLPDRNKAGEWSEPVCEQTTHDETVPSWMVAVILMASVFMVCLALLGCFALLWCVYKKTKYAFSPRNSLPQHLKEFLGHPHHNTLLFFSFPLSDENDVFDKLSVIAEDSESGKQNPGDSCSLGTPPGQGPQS
# B1: IL-22 Fc construct 18 (huIgG1, linker …, N297G, produced in CHO) (Fc fusion, not shown: a dimerising Fc or GST)
# chain: APISSHCRLDKSNFQQPYITNRTFMLAKEASLADNNTDVRLIGEKLFHGVSMSERCYLMKQVLNFTLEEVLFPQSDRFQPYMQEVVPFLARLSNRLSTCHIEGDDLHIQRNVQKLKDTVKKLGESGEIKAIGELDLLFMSLRNACIKKVEPKSSDKTHT
# B2: IL-22 Fc construct 24 (huIgG1, linker …, produced in E. coli) (Fc fusion, not shown: a dimerising Fc or GST)
# chain: APISSHCRLDKSNFQQPYITNRTFMLAKEASLADNNTDVRLIGEKLFHGVSMSERCYLMKQVLNFTLEEVLFPQSDRFQPYMQEVVPFLARLSNRLSTCHIEGDDLHIQRNVQKLKDTVKKLGESGEIKAIGELDLLFMSLRNACIEPKSSDKTHT
# B3: IL-22 Fc construct 12 (huIgG1, linker …, produced in CHO) (Fc fusion, not shown: a dimerising Fc or GST)
# chain: APISSHCRLDKSNFQQPYITNRTFMLAKEASLADNNTDVRLIGEKLFHGVSMSERCYLMKQVLNFTLEEVLFPQSDRFQPYMQEVVPFLARLSNRLSTCHIEGDDLHIQRNVQKLKDTVKKLGESGEIKAIGELDLLFMSLRNACIDKKVEPKSSDKTHT
# B4: IL-22 Fc construct 13 (huIgG1, linker …, produced in CHO) (Fc fusion, not shown: a dimerising Fc or GST)
# chain: APISSHCRLDKSNFQQPYITNRTFMLAKEASLADNNTDVRLIGEKLFHGVSMSERCYLMKQVLNFTLEEVLFPQSDRFQPYMQEVVPFLARLSNRLSTCHIEGDDLHIQRNVQKLKDTVKKLGESGEIKAIGELDLLFMSLRNACIKVDKKVEPKSSDKTHT
# Target: T1, human IL-22 receptor complex IL22R1 and IL10R2, overexpressed on HEK 293 cells (human)
# Assay: cell-based or functional assay
row,Binder,"EC50 (pM), STAT3 luciferase reporter assay [pM]"
1,B1,20
2,B2,16
3,B3,25
4,B4,25
